Test [1] addresses T1, Recombinant Human DLL4 (R&D Systems Cat#1506-D4/CF) (human, UniProt Q9NR61 27-524).
T1 construct: Bought recombinant protein; also called delta-like protein 4; rHuman DLL4
Description: ECL Multispot (MSD), DLL4 spotted, 10 nM Fab.

Test [2] concerns the target T1, Recombinant Human DLL4 (R&D Systems …). Description: ELISA, DLL4 coated, 100 nM Fab, absorbance at 450 nm minus noise.
The target in test [3] is T2, Recombinant Human DLL4 (delta-like protein 4) (human, UniProt Q9NR61 27-524).
T2 construct: Bought recombinant protein (R&D Systems Cat#1506-D4/CF) coated on the ELISA plate; also called rHuman DLL4; Delta-like 4
As to the kind of experiment: ELISA, DLL4 coated on plate, Fab at 5 nM, absorbance at 450 nm. (In general: In an ELISA, binding on a coated surface is turned into a signal by an enzyme label.)

The target in test [4] is T2, Recombinant Human DLL4 (delta-like …). Description: ELISA, DLL4 coated on plate, Fab at 10 nM, absorbance at 450 nm.
Test [5] has the same target. As to the kind of experiment: ELISA, DLL4 coated on plate, Fab at 20 nM, absorbance at 450 nm.
Test [6] shares this target. As to the kind of experiment: ELISA, DLL4 coated on plate, Fab at 1.3 nM, absorbance at 450 nm.
Test [7] shares this target. As to the kind of experiment: ELISA, DLL4 coated on plate, Fab at 2.5 nM, absorbance at 450 nm.
For test [8] the target is unchanged. Description: ELISA, DLL4 coated on plate, Fab at 0.16 nM, absorbance at 450 nm.
Test [9] shares this target. As to the kind of experiment: ELISA, DLL4 coated on plate, Fab at 0.31 nM, absorbance at 450 nm.
The target is the same in test [10]. Description: ELISA, DLL4 coated on plate, Fab at 0.63 nM, absorbance at 450 nm.
For test [11], the target named is T3, Recombinant Human DLL4 (R&D Systems Cat#1506-D4/CF) (human, UniProt Q9NR61 27-524).
T3 construct: Bought recombinant protein; also called delta-like protein 4; rHuman DLL4
As to the kind of experiment: ECL (MSD) binding assay, immobilised DLL4, repeat experiment.

Test [12] addresses T4, rHuman IGF-1 sR (insulin-like growth factor-1 soluble receptor), CF (R&D Systems Cat#391-GR) (human, UniProt P08069 31-932).
T4 construct: Bought recombinant soluble receptor
As to the kind of experiment: ECL Multispot (MSD) assay, antigen spotted on plate, 10 nM Fab.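 Also: purified Fab bound to antigen spots for 1 h at 20 °C, then TAG detection antibody, electrochemiluminescence compared with each well's blank, ratio of 4 or more marks a hit.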

The target of test [13] is T5, rHuman P-Cadherin/Fc Chimera, CF (R&D Systems Cat#861-PC) (human, UniProt P22223 108-654).
T5 construct: Bought recombinant protein
Described as above.

For test [14], the target named is T3, Recombinant Human DLL4 (R&D Systems …). The description is as above.
Test [15] concerns the target T6, rHuman ErbB2/Fc Chimera, CF (R&D Systems Cat#1129-ER) (human, UniProt P04626 23-652).
T6 construct: Bought recombinant protein
The test is described as above.

In test [16] the target is T7, rHuman EGF R/Fc Chimera, CF (R&D Systems Cat#344-ER) (human, UniProt P00533 25-645).
T7 construct: Bought recombinant protein
Described as above.

Test [17] addresses T8, rHuman HGF R/c-MET/Fc Chimera, CF (R&D Systems Cat#358-MT/CF) (human, UniProt P08581 25-932).
T8 construct: Bought recombinant protein; also called HGF R/Fc
Described as above.

Test [18] concerns the target T3, Recombinant Human DLL4 (R&D Systems …). As to the kind of experiment: ECL (MSD) binding assay, DLL4 signal divided by blank, repeat experiment.
Test [19] deals with T9, rHuman IGF-1 sR, CF (R&D Systems Cat#391-GR) (human, UniProt P08069 31-932).
T9 construct: Bought from R&D Systems as a soluble receptor; also called insulin-like growth factor-1 soluble receptor
Description: ECL multispot (MSD) binding assay; antigen spotted on plate, Fab in solution, Ru-labelled anti-kappa detection.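 Also: purified Fab in 1% BSA TBST incubated 1 h at 20 °C with shaking, signal compared with each well's blank, signal/blank ratio of 4 or above counted as binder.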

Test [20] addresses T10, rHuman P-Cadherin/Fc Chimera, CF (R&D Systems Cat#861-PC) (human, UniProt P22223 108-654).
T10 construct: Bought from R&D Systems; Fc part of the bought chimera not given
Described as above.

The target in test [21] is T11, Recombinant Human DLL4 (R&D Systems Cat#1506-D4/CF) (human, UniProt Q9NR61 27-524).
T11 construct: Bought from R&D Systems; also called delta-like protein 4; rHuman DLL4
The description is as above.

The target of test [22] is T12, rHuman EGF R/Fc Chimera, CF (R&D Systems Cat#344-ER) (human, UniProt P00533 25-645).
T12 construct: Bought from R&D Systems; also called epidermal growth factor receptor; Fc part of the bought chimera not given
The test is described as above.

For test [23], the target named is T13, rHuman HGF R/c-MET/Fc Chimera, CF (R&D Systems Cat#358-MT/CF) (human, UniProt P08581 25-932).
T13 construct: Bought from R&D Systems; also called HGF R/Fc; hepatocyte growth factor receptor; Fc part of the bought chimera not given
The description is as above.

Numbering of substitutions follows the chain as printed. Names and notes keep the numbering of the source.

Consider 10 molecules from patent US20120316071A1 (published 2012).

B1: Fab VH1-46_IGHD6-6*01_IGHJ1*01 S102A/S103P/S104F/H111F S31A & L6_IGKJ1*01 (Fab, V domains shown)
VH: QVQLVQSGAEVKKPGASVKVSCKASGYTFTAYYMHWVRQAPGQGLEWMGIINPSGGSTSYAQKFQGRVTMTRDTSTSTVYMELSSLRSEDTAVYYCAREEYAPFSAEYFQFWGQGTLVTVSS
VL: not shown
notes: Tested as Fab (CH1 with His6/Flag tags; kappa CL), expressed in E. coli; also called APFF S31A
For the molecule B1, in test [1], the “ECL Signal/Noise” value was 453. Also, the “ELISA (Signal-Noise)” value in test [2] was 0.47.

B2: Fab VH1-46_IGHD6-6*01_IGHJ1*01 S102A/S103P/S104F/H111F/N52L/S54T/G56H (APFF LTH) & L6_IGKJ1*01 (Fab, V domains shown)
VH: B1 VH with A31S, N52L, S54T, G56H
VL: not shown
notes: Tested as a Fab made in E. coli: VH cloned into Plasmid A (CH1, His6 and Flag tags), kappa VL into Plasmid C (kappa CL); also called H:APFF LTH & L:wt
With B2, the ELISA signal in test [3] was 2.48; in test [4] it was 2.35; in test [5], 2.4; in [6] it was 0.653; in test [7], 2.15; in test [8], 2.35. Moreover, the values for the ELISA signal in test [9] and in test [10] were 2.4 and 1.37, respectively.

B3: Fab VH1-46_IGHD6-6*01_IGHJ1*01 S102A/S103P/S104F/H111F (APFF) & L6_IGKJ1*01 (Fab, V domains shown)
VH: B1 VH with A31S
VL: not shown
notes: Tested as Fab expressed in E. coli; Heavy chain from Plasmid A (CH1, His6 and Flag tags), kappa light chain from Plasmid C (CL); also called H:APFF & L:wt
On to B3, for which the ECL signal in [11] was 197000; in test [12], 397; in test [13] it was 347; in test [14] it was 78400; in test [15] it was 354; in test [16], 383. In addition, in [17], the ECL signal was 347. In addition, in test [18], the Signal/Noise is 694.

B4: Fab VH1-46_IGHD6-6*01_IGHJ1*01 S102A/S103P/S104F/H111F F29A & L6_IGKJ1*01 (Fab, V domains shown)
VH: B1 VH with F29A, A31S
VL: not shown
notes: Tested as a Fab made in E. coli; The heavy chain vector (Plasmid A) adds CH1 with His6 and Flag tags; The light chain vector (Plasmid C) adds kappa CL; also called APFF F29A
In the case of B4, the ECL signal was determined as 439 in test [19]; 508 in test [20]; 109000 in [21]; 537 in test [22]; 512 in test [23].

B5: Fab VH1-46_IGHD6-6*01_IGHJ1*01 S102A/S103P/S104F/H111F/I51N/N52L/S54T/G56H (APFF NLTH) & L6_IGKJ1*01 (Fab, V domains shown)
VH: B1 VH with A31S, I51N, N52L, S54T, G56H
VL: not shown
notes: Tested as a Fab made in E. coli: VH in Plasmid A (CH1, His6 and Flag tags), kappa VL in Plasmid C (kappa CL)
As for B5, the ELISA signal in test [3] came to 1.75; in test [4], 1.36; in test [5], 1.63; in [6], 0.143; in test [7], 1.17; in [8] it was 1.36. In addition, the ELISA signal was 1.63 in test [9] and 0.419 in test [10].

B6: Fab VH1-46_IGHD6-6*01_IGHJ1*01 S102A/S103P/S104F/H111F I51T/N52V (APFF I51T/N52V) & L6_IGKJ1*01 (Fab, V domains shown)
VH: B1 VH with A31S, I51T, N52V
VL: not shown
notes: as for B5
In the case of B6, the ELISA signal in [3] worked out at 0.724; in test [4] it was 0.506; in [5], 0.648; in [6], 0.055; in test [7] it was 0.358; in test [8] it was 0.506. In addition, the figures for the ELISA signal in [9] and in test [10] were 0.648 and 0.115, respectively.

B7: Fab VH1-46_IGHD6-6*01_IGHJ1*01 S102A/S103P/S104F/H111F T28A & L6_IGKJ1*01 (Fab, V domains shown)
VH: B1 VH with T28A, A31S
VL: not shown
notes: Tested as Fab (CH1 with His6/Flag tags; kappa CL), expressed in E. coli; also called APFF T28A
As for B7, in test [1], the “ECL Signal/Noise” value was 334. Besides, the “ELISA (Signal-Noise)” value in test [2] was found to be 0.77.

B8: Fab VH1-46_IGHD6-6*01_IGHJ1*01 S102A/S103P/S104F/H111F/I51E/N52L/S54T/G56H (APFF ELTH) & L6_IGKJ1*01 (Fab, V domains shown)
VH: B1 VH with A31S, I51E, N52L, S54T, G56H
VL: not shown
notes: as for B5
Take B8: the ELISA signal in [3] is 2.33; in test [4], 2.17; in test [5], 2.29; in test [6], 0.402; in [7], 1.98; in test [8], 2.17. Further, the ELISA signal was found to be 2.29 in test [9] and 1.01 in [10].

B9: Fab VH1-46_IGHD6-6*01_IGHJ1*01 S102A/S103P/S104F/H111F T30A & L6_IGKJ1*01 (Fab, V domains shown)
VH: B1 VH with T30A, A31S
VL: not shown
notes: Tested as Fab (CH1 with His6/Flag tags; kappa CL), expressed in E. coli; also called APFF T30A
On to B9, for which the “ECL Signal/Noise” value in [1] stood at 457. Also, the “ELISA (Signal-Noise)” value in test [2] came to 0.64.

B10: Fab VH1-46_IGHD6-6*01_IGHJ1*01 S102A/S103P/S104F/H111F Y33A & L6_IGKJ1*01 (Fab, V domains shown)
VH: B1 VH with A31S, Y33A
VL: not shown
notes: Tested as Fab (CH1 with His6/Flag tags; kappa CL), expressed in E. coli; also called APFF Y33A
With B10, the “ECL Signal/Noise” value in test [1] stood at 136. For the same molecule, the “ELISA (Signal-Noise)” value in test [2] is 0.09.
